Experimental data taken from the supplement of paper PMC10065799, “High-throughput profiling of sequence recognition by tyrosine kinases and SH2 domains using bacterial peptide display” (eLife, 2023).

Experiments:
c-Src SH2 = assay: SH2 binding enrichment of the phosphorylated peptide, bacterial display (enrichment ratio); higher = better substrate or ligand; peptides without Tyr show the background
SHP2-C SH2 = assay: as above
Grb2 SH2 = Grb2 SH2 (UniProt P62993); assay: as above
c-Abl (mouse) = assay: phosphorylation enrichment, bacterial display (enrichment ratio); higher = better substrate or ligand; peptides without Tyr show the background
Jak2 = Jak2 (UniProt O60674); assay: as above
Jak2, sequence (O60674 whole entry, looked up): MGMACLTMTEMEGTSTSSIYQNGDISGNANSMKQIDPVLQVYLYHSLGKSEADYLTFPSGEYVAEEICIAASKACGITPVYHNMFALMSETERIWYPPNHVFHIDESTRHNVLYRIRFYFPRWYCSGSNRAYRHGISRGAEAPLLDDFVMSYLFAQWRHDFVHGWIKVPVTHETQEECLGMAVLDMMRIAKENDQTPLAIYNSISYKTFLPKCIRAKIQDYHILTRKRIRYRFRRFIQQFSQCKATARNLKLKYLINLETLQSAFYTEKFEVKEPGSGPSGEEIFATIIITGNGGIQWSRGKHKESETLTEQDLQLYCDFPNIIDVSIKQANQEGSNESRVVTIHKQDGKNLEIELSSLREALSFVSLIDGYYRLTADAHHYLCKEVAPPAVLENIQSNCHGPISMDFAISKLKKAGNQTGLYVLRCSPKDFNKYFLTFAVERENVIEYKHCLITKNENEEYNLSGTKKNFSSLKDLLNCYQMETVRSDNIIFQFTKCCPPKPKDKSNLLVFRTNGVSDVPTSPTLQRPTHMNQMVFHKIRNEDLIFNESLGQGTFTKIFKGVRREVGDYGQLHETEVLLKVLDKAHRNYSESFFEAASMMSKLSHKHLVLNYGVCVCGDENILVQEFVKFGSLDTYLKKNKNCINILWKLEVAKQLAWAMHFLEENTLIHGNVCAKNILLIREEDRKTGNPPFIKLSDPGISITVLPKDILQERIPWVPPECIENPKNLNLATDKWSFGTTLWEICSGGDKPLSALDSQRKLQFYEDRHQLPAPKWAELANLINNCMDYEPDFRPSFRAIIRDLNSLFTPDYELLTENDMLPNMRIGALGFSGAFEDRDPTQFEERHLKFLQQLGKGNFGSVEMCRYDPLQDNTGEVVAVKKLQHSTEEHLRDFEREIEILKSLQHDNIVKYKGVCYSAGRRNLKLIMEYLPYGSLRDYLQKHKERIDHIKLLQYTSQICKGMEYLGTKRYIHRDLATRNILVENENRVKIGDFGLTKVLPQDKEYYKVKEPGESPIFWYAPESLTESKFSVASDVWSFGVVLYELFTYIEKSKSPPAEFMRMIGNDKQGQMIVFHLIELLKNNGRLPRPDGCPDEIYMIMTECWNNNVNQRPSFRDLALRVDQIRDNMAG

c-Src = assay: as above
FGFR3 = FGFR3 (UniProt P22607); assay: as above
FGFR3, sequence (P22607 whole entry, looked up): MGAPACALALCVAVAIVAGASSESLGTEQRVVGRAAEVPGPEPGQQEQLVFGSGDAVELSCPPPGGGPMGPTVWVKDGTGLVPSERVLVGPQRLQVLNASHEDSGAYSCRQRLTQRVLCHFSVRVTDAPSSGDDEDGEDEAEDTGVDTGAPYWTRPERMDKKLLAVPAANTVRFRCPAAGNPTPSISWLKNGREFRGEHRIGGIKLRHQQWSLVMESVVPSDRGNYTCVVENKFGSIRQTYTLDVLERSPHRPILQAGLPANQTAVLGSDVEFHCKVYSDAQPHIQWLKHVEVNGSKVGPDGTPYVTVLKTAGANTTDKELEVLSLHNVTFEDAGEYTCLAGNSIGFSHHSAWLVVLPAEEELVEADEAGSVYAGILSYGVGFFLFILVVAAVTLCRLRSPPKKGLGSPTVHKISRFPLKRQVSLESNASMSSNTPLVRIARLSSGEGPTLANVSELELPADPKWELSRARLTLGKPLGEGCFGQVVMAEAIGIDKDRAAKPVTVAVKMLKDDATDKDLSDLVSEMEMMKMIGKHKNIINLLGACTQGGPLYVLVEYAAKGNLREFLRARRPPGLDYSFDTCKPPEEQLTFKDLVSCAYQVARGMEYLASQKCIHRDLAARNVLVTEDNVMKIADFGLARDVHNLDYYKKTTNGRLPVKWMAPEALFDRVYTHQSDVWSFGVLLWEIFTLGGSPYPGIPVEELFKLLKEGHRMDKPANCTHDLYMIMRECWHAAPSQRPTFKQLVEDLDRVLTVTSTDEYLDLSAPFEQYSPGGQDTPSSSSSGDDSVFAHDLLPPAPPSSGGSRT

FGFR1 = FGFR1 (UniProt P11362); assay: as above
Fyn = Fyn (UniProt P06241); assay: as above
Fes = Fes (UniProt P07332); assay: as above
Fes, sequence (P07332 whole entry, looked up): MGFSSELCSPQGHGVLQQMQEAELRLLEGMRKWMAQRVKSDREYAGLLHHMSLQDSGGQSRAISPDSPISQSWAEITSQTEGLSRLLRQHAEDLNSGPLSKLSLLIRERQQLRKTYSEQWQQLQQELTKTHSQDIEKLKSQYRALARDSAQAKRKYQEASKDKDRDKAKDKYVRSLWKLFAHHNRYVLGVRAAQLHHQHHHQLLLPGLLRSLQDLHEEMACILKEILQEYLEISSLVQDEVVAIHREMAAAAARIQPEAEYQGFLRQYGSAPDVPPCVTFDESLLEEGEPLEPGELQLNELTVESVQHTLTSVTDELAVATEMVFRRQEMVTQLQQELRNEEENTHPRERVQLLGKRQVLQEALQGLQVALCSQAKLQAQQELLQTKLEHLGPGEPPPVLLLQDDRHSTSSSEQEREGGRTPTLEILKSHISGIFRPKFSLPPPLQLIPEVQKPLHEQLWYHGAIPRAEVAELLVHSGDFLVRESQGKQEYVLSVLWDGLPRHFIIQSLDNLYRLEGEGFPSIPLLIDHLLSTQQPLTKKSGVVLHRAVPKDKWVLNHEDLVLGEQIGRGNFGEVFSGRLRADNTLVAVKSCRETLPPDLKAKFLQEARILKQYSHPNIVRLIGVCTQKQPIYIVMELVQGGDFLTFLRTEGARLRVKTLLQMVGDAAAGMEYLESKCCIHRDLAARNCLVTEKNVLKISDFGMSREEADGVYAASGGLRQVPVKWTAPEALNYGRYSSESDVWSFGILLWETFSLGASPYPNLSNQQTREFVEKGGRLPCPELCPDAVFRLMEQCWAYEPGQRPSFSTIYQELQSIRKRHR

Fer (mouse) = assay: as above
Hck = Hck (UniProt P08631); assay: as above
MERTK = MERTK (UniProt Q12866); assay: as above
EPHB2 = EPHB2 (UniProt P29323); assay: as above
EPHB2, sequence (P29323 whole entry, looked up): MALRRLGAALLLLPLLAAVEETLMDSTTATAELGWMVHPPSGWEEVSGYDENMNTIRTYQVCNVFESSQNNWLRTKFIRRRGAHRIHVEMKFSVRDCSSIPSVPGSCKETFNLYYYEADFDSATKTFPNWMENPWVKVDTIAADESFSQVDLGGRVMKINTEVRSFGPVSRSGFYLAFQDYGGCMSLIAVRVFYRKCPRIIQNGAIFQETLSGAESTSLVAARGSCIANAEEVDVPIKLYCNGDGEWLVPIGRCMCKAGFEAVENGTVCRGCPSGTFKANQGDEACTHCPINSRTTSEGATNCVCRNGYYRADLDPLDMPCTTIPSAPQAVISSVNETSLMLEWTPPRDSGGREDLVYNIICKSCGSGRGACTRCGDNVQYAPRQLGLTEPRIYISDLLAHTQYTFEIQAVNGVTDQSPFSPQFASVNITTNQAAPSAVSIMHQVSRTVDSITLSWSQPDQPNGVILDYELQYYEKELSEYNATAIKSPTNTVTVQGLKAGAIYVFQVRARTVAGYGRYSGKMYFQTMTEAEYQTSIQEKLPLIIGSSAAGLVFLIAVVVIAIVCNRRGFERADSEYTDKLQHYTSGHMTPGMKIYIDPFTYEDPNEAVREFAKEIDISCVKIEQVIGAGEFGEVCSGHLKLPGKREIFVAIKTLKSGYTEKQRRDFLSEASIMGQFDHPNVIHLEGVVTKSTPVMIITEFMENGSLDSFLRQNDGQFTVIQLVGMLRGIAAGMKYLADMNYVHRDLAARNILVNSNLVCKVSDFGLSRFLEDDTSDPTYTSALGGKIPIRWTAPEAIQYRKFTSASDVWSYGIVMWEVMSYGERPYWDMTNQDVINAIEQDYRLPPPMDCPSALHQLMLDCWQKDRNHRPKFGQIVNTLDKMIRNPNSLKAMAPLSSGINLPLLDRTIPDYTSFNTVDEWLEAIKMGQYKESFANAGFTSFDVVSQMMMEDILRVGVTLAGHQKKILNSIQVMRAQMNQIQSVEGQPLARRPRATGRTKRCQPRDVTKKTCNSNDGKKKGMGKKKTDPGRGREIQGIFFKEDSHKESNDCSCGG

AncSZ = assay: as above
EPHB1 = EPHB1 (UniProt P54762); assay: as above
EPHB1, sequence (P54762 whole entry, looked up, the tested form may be a part): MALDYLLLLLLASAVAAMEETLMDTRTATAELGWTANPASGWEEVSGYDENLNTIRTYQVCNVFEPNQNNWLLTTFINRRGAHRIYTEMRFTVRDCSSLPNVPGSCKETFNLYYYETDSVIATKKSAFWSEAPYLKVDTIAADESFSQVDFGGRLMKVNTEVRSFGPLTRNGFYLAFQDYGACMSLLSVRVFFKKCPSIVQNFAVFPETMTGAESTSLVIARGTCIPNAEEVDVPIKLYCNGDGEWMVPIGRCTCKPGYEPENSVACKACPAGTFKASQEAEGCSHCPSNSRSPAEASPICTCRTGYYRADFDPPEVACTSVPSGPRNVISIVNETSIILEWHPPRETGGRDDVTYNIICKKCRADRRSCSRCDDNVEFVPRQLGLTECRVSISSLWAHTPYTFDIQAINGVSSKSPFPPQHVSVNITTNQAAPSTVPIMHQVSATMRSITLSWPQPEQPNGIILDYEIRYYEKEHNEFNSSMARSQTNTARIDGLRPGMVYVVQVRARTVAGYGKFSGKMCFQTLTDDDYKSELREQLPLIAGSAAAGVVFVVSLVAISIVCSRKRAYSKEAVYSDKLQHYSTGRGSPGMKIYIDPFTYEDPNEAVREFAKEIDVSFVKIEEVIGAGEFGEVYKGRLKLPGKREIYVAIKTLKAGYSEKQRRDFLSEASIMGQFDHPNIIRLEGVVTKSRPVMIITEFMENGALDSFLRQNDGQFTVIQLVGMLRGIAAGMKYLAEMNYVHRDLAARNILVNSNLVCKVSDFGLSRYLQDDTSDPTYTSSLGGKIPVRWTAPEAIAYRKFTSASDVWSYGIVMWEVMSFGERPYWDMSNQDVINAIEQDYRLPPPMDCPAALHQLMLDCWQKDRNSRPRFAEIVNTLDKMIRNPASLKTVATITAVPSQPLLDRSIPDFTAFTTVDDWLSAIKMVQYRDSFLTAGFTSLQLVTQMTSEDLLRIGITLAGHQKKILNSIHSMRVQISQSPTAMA
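Throughout, for SH2 binding enrichment of the phosphorylated peptide, bacterial display: peptide library displayed on the E. coli surface as eCPX fusions, selected cells deep-sequenced, score is each peptide's frequency after selection divided by its frequency in the input.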
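Throughout, for phosphorylation enrichment, bacterial display: 11-residue human phosphosite peptides and single-mutation variants displayed on the E. coli surface, counted by deep sequencing, each peptide's frequency after selection divided by its frequency in the unselected input library; frequency after pTyr selection over input frequency; kinase dosed for 20-30% of maximal phosphorylation in three min.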

Grb2 SH2, sequence (P62993 whole entry, looked up): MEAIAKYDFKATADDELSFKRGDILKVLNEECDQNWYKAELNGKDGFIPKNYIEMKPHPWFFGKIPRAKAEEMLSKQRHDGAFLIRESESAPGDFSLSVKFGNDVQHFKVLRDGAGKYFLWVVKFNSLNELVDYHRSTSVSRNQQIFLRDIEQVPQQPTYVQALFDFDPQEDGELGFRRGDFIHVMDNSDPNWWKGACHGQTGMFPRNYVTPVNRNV

Sequence	SH2 binding enrichment (c-Src SH2)	SH2 binding enrichment (SHP2-C SH2)	SH2 binding enrichment (Grb2 SH2)	phosphorylation enrichment (c-Abl (mouse))	phosphorylation enrichment (Jak2)	phosphorylation enrichment (c-Src)	phosphorylation enrichment (FGFR3)	phosphorylation enrichment (FGFR1)	phosphorylation enrichment (Fyn)	phosphorylation enrichment (Fes)	phosphorylation enrichment (Fer (mouse))	phosphorylation enrichment (Hck)	phosphorylation enrichment (MERTK)	phosphorylation enrichment (EPHB2)	phosphorylation enrichment (AncSZ)	phosphorylation enrichment (EPHB1)
SSREGYVRHHN [FAM83B_Y433_S435R]	0.592	0.573	0.956	0.451	0.672	0.38	0.473	0.416	0.377	0.435	0.501	0.387	0.409	0.445	0.482	0.309
KYLENYYDLEK [MMP3_Y41_K45E]	1.08	0.736	0.702	0.818	1.2	2.2	6.66	8.94	5.37	1.3	0.664	1.83	0.819	4.75	1.64	9.73
YRIGPYQPSVP [MATR3_Y784_N787S]	0.668	0.996	0.829	0.62	0.524	0.449	0.759	0.749	0.514	0.708	0.429	0.481	0.425	0.434	0.55	0.421
NIKKEYTKMVQ [PMS2_Y181_A182T]	0.784	0.456	0.983	0.502	0.49	0.426	0.439	0.808	0.378	0.492	0.27	0.385	0.452	0.333	0.494	0.394
SNFRAYATEPQ [TNNI3_Y29_H34Q_YF]	0.419	0.556	0.806	0.585	0.565	0.346	0.494	0.355	0.427	0.869	0.442	0.518	0.477	0.408	0.577	0.468
VIGRMYDYHVL [RPF2_Y109]	1.93	1.71	0.927	0.65	0.976	0.643	3.7	6.62	0.504	0.859	9.05	0.538	5.17	1.7	0.966	1.33
SKNFTYIWWLN [PSG4_Y271_YF]	0.409	0.513	0.646	0.78	1.26	0.402	0.884	0.498	0.416	1.36	0.508	0.435	0.391	0.611	1.18	0.675
IFGASYVPFAA [RBM47_Y541_YF]	0.676	0.932	0.889	0.496	1.27	1	0.636	0.589	0.609	0.783	0.542	0.92	0.71	0.53	0.775	0.432
FQCKHYACIRQ [TIMP3_Y182_S179C_YF]	2.38	3.79	1.74	0.634	0.508	0.393	0.501	0.341	0.365	0.72	0.379	0.445	0.414	0.35	0.542	0.378
WDLTDYLMKIL [ACTB_Y188_R183W]	1.32	1.92	1.66	0.894	1.23	0.487	0.777	0.539	0.519	1.32	0.529	0.611	0.477	0.548	1.25	0.556
GLVFLYVEKNQ [PRELP_Y156_M157V]	0.663	1.19	1.12	0.759	1.15	0.479	0.902	0.44	0.505	1.29	0.575	0.532	0.337	0.622	1.22	0.6
KLADIYQAELR [GFAP_Y116_V115I]	0.541	0.561	1.01	0.674	0.813	1.62	0.582	0.419	0.795	0.839	0.502	0.799	0.709	0.595	0.789	0.59
IGEGTYGVLFK [CDK2_Y15_V18L_YF]	0.387	0.8	0.882	0.708	0.702	5.31	0.606	0.38	8.03	0.997	0.673	6.57	1.48	1.73	0.85	1.1
CTTIHYNDMCN [TP53_Y234_Y236D]	2.42	0.658	0.756	0.589	0.724	0.492	0.539	0.485	0.422	0.85	0.421	0.455	0.396	0.528	1.03	0.451
NLNGKCNKPRA [ANGPTL3_Y417_Y417C]	0.496	1.24	1.23	0.388	0.435	0.393	0.446	0.39	0.422	0.558	0.64	0.347	0.44	0.41	0.596	0.322
GRQWNYVASMS [KLHL4_Y552]	0.767	0.966	1.04	0.719	0.618	0.371	0.539	0.434	0.419	0.754	0.355	0.4	0.395	0.549	0.799	0.508
